Results as given in patent US20190119318A1.

What was measured:
[1] = molecular target: human polyclonal IgG (Gammanorm) (human); assay: column DBC; base C3; ligand […]
[2] = molecular target: human polyclonal IgG (Gammanorm) (human); assay: column DBC; base A20; ligand […]
[3] = molecular target: human polyclonal IgG (Gammanorm) (human); assay: column DBC; base A33; ligand […]; conditions: ligand content 6.5 mg/ml
[4] = molecular target: human polyclonal IgG (Gammanorm) (human); assay: column DBC; base A38; ligand […]
[5] = molecular target: human polyclonal IgG (Gammanorm) (human); assay: column DBC; base A54; ligand […]; conditions: ligand content 6.7 mg/ml
[6] = molecular target: human polyclonal IgG (Gammanorm) (human); assay: column DBC; base A56; ligand […]; conditions: ligand content 7.1 mg/ml
[7] = molecular target: human polyclonal IgG (Gammanorm) (human); assay: column DBC; base H31; ligand […]
[8] = molecular target: human polyclonal IgG (Gammanorm) (human); assay: column DBC; base H35; ligand […]
[9] = molecular target: human polyclonal IgG (Gammanorm) (human); assay: column DBC; base H40; ligand […]; conditions: ligand content 6.9 mg/ml
[10] = molecular target: human polyclonal IgG (Gammanorm) (human); assay: column DBC; base A62a; ligand […]
[11] = molecular target: human polyclonal IgG (Gammanorm) (human); assay: column DBC; base A56-2; ligand […]
[12] = molecular target: human polyclonal IgG (Gammanorm) (human); assay: SPR; vs reference Zvar6; 0.5 M NaOH
[13] = molecular target: human polyclonal IgG (Gammanorm) (human); assay: SPR; after 100 CIP cycles 0.5 M NaOH
[14] = molecular target: human polyclonal IgG (Gammanorm) (human); assay: column DBC; base A20; ligand 6.4 mg/ml
[15] = molecular target: human polyclonal IgG (Gammanorm) (human); assay: column DBC; base A56; ligand 7.9 mg/ml
[16] = molecular target: human polyclonal IgG (Gammanorm) (human); assay: column DBC; base C3; ligand 11.9 mg/ml
[17] = molecular target: human polyclonal IgG (Gammanorm) (human); assay: column DBC; base C3; ligand 15.1 mg/ml
[18] = molecular target: human polyclonal IgG (Gammanorm) (human); assay: column DBC; base C4; ligand 11.2 mg/ml
[19] = molecular target: human polyclonal IgG (Gammanorm) (human); assay: column DBC; base C4; ligand 15.2 mg/ml
[20] = molecular target: human polyclonal IgG (Gammanorm) (human); assay: column DBC; base S9; ligand 18.4 mg/ml
[21] = molecular target: human polyclonal IgG (Gammanorm) (human); assay: column DBC; base A20; ligand 21.1 mg/ml
[22] = molecular target: human polyclonal IgG (Gammanorm) (human); assay: column DBC; base A38; ligand 11.6 mg/ml
[23] = molecular target: human polyclonal IgG (Gammanorm) (human); assay: column DBC; base A38; ligand 15.8 mg/ml
[24] = molecular target: human polyclonal IgG (Gammanorm) (human); assay: column DBC; base A54; ligand 21.1 mg/ml
[25] = molecular target: human polyclonal IgG (Gammanorm) (human); assay: column DBC; base A56; ligand 15.2 mg/ml
[26] = molecular target: human polyclonal IgG (Gammanorm) (human); assay: column DBC; base A56; ligand 19.2 mg/ml
[27] = molecular target: human polyclonal IgG (Gammanorm) (human); assay: column DBC; base A62a; ligand 9.6 mg/ml
[28] = molecular target: human polyclonal IgG (Gammanorm) (human); assay: column DBC; base A63b; ligand 6.4 mg/ml
[29] = molecular target: human polyclonal IgG (Gammanorm) (human); assay: column DBC; base H31; ligand 20.0 mg/ml
[30] = molecular target: human polyclonal IgG (Gammanorm) (human); assay: column DBC; base H35; ligand 12.3 mg/ml
[31] = molecular target: human polyclonal IgG (Gammanorm) (human); assay: column DBC; base H35; ligand 20.3 mg/ml
[32] = molecular target: human polyclonal IgG (Gammanorm) (human); assay: column DBC; base H40; ligand 23.0 mg/ml
[33] = molecular target: human polyclonal IgG (Gammanorm) (human); assay: column DBC; base P10; ligand 19.0 mg/ml
[34] = molecular target: human polyclonal IgG (Gammanorm) (human); assay: column DBC; base A63b; ligand 10.6 mg/ml
[35] = molecular target: human polyclonal IgG (Gammanorm) (human); assay: column DBC; base A63b; ligand 16.7 mg/ml
[36] = molecular target: human polyclonal IgG (Gammanorm) (human); assay: column DBC; base A56-2; ligand 12.5 mg/ml
[37] = molecular target: human polyclonal IgG (Gammanorm) (human); assay: column DBC; base A56-2; ligand 19.2 mg/ml

**Q.** What does the source list for “Zvar(Q9A,N11E,Q40V,A42K,N43A,L44I)6 (designed binder)”?
**A.** Qb10% 2.4 min [1]: 48 mg/mL; Qb10% 6 min [1]: 59 mg/mL; Qb10% 2.4 min [2]: 38 mg/mL; Qb10% 6 min [2]: 64 mg/mL; Qb10% 2.4 min [3]: 44 mg/mL; Qb10% 6 min [3]: 53 mg/mL; Qb10% 2.4 min [4]: 47 mg/mL; Qb10% 6 min [4]: 57 mg/mL; Qb10% 2.4 min [5]: 38 mg/mL; Qb10% 6 min [5]: 46 mg/mL; Qb10% 2.4 min [6]: 48 mg/mL; Qb10% 6 min [6]: 57 mg/mL; Qb10% 2.4 min ([7]; ligand content 6.5 mg/ml): 37 mg/mL; Qb10% 6 min ([7]; ligand content 6.5 mg/ml): 38 mg/mL; Qb10% 2.4 min ([7]; ligand content 10.4 mg/ml): 50 mg/mL; Qb10% 6 min ([7]; ligand content 10.4 mg/ml): 61 mg/mL; Qb10% 2.4 min [8]: 36 mg/mL; Qb10% 6 min [8]: 49 mg/mL; Qb10% 2.4 min [9]: 50 mg/mL; Qb10% 6 min [9]: 56 mg/mL; Qb10% 2.4 min [10]: 62 mg/mL; Qb10% 6 min [10]: 84 mg/mL; Qb10% 2.4 min [11]: 50 mg/mL; Qb10% 6 min [11]: 58 mg/mL; capacity relative to ref. 100 cycles [12]: 1.3; remaining capacity 100 cycles [13]: 87%; Qb10% 2.4 min [14]: 41 mg/mL; Qb10% 6 min [14]: 56 mg/mL; Qb10% 2.4 min [15]: 47 mg/mL; Qb10% 6 min [15]: 55 mg/mL; Qb10% 2.4 min [16]: 51 mg/mL; Qb10% 6 min [16]: 73 mg/mL; Qb10% 2.4 min [17]: 43 mg/mL; Qb10% 6 min [17]: 61 mg/mL; Qb10% 2.4 min [18]: 62 mg/mL; Qb10% 6 min [18]: 74 mg/mL; Qb10% 2.4 min [19]: 57 mg/mL; Qb10% 6 min [19]: 82 mg/mL; Qb10% 2.4 min [20]: 56 mg/mL; Qb10% 6 min [20]: 75 mg/mL; Qb10% 2.4 min [21]: 44 mg/mL; Qb10% 6 min [21]: 43 mg/mL; Qb10% 2.4 min [22]: 48 mg/mL; Qb10% 6 min [22]: 72 mg/mL; Qb10% 2.4 min [23]: 36 mg/mL; Qb10% 6 min [23]: 62 mg/mL; Qb10% 2.4 min [24]: 38 mg/mL; Qb10% 6 min [24]: 65 mg/mL; Qb10% 2.4 min [25]: 48 mg/mL; Qb10% 6 min [25]: 76 mg/mL; Qb10% 2.4 min [26]: 55 mg/mL; Qb10% 6 min [26]: 80 mg/mL; Qb10% 2.4 min [27]: 56 mg/mL; Qb10% 6 min [27]: 72 mg/mL; Qb10% 2.4 min [28]: 42 mg/mL; Qb10% 6 min [28]: 46 mg/mL; Qb10% 2.4 min [29]: 31 mg/mL; Qb10% 6 min [29]: 52 mg/mL; Qb10% 2.4 min [30]: 31 mg/mL; Qb10% 6 min [30]: 54 mg/mL; Qb10% 2.4 min [31]: 20 mg/mL; Qb10% 6 min [31]: 43 mg/mL; Qb10% 2.4 min [32]: 41 mg/mL; Qb10% 6 min [32]: 65 mg/mL; Qb10% 6 min [33]: 76 mg/mL; Qb10% 2.4 min [34]: 49 mg/mL; Qb10% 6 min [34]: 60 mg/mL; Qb10% 2.4 min [35]: 53 mg/mL; Qb10% 6 min [35]: 69 mg/mL; Qb10% 2.4 min [36]: 59 mg/mL; Qb10% 6 min [36]: 72 mg/mL; Qb10% 2.4 min [37]: 61 mg/mL; Qb10% 6 min [37]: 82 mg/mL
